Consider one molecule from article PMC4137956 (Immunology, 2014).

The term Kd denotes the free concentration of one partner at which half of the binding sites on the other are occupied at equilibrium, for simple one-to-one binding.

In assay [1] the target is T1, 129 mouse SIRPα, three extracellular IgSF domains (3d) (mouse, UniProt P97797 32-369, biotin (on the biotinylation sequence)).
T1 sequence (looked up): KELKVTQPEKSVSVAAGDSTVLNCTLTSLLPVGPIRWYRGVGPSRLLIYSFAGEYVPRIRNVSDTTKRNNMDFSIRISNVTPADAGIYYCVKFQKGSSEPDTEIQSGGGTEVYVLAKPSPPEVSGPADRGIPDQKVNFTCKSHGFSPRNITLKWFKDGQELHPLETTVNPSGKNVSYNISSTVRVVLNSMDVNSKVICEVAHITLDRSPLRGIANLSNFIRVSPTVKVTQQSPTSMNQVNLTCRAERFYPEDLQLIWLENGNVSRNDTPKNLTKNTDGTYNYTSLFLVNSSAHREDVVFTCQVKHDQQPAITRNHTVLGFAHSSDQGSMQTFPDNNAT
In words: SPR; biotinylated SIRPα variants bound to streptavidin immobilised on a BIAcore CM5 chip, BIAcore 3000, 37°; dilutions of monomeric recombinant CD47 extracellular domain passed over; affinity from equilibrium binding. The settings on record: one partner purified. (In general: SPR reads the build-up and loss of mass on a sensor chip optically.)

Assay [2] concerns the target T2, C57BL/6 mouse SIRPα, N-terminal domain (d1) (mouse, biotin (on the biotinylation sequence)).
T2 sequence (P97797 whole entry, looked up): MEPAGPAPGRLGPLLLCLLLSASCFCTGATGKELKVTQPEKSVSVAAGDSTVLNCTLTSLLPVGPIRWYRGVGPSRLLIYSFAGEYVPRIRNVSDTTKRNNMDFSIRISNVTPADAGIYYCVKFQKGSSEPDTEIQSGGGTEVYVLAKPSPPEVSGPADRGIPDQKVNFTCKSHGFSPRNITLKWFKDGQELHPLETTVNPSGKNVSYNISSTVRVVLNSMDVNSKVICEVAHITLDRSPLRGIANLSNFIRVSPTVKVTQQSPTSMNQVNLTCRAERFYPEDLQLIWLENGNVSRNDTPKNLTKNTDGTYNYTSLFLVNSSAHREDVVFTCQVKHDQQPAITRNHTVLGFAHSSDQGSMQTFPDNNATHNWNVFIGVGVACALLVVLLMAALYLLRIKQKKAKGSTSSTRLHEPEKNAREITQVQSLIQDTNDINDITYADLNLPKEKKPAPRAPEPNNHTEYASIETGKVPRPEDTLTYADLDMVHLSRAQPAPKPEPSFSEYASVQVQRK
The assay is described as above. The settings on record: one partner purified.

B1: mouse CD47 IgSF domain, monomeric recombinant extracellular domain (domain or fragment)
chain: QLLFSNVNSIEFTSGNETVVIPCIVRNVEAQSTEEMFVKWKLNKSYIFIYDGNKNSTTTDQNFTSAKISVSDLINGIASLKMDKRDAMVGNYTCEVTELSREGKTVIELKNRTVSWFSPNE
As for B1, the values for the Kd in assay [1] and in assay [2] were 2.5 µM and 5.3 µM, respectively.
